Where two headings read alike, the source gives them in different places.
B1: A19-46.1 (antibody)
chain 1: QVQLVESGGGVVQPGRSLRLSCAASGFTLSSYGMHWVRQAPGKGLEWVAVISYDGSNKYYVDSVKGRFTISRDNSKNTLYLQMNSLRAEDTAVYYCARGWAYWELLPDYYYGMDVWGQGTTVTVSS
chain 2: QTVVTQEPSFSVSPGGTVTLTCGLSSGSVSTAYFPSWYQQTPGQAPRTLIYGTNTRSSGVPDRFSGSILGNKAALTITGAQADDESDYYCVLYMGRGIVVFGGGTKLTVL
B2: B2-269.1 (antibody, V domains shown)
VH: EVQLVESGGGLVQPGGSLRLSCAASGITVSSNYMSWVRQPPGKGLDWVSLIFSGGSTYYADSVKGRFTISRDNSKNTLYLQMNSLRAEDTAVYYCARVGVAVAGTDYDIWGQGTMVTVSS
VL: DIQMTQSPSSLSASVGDRVTITCQASQDINKYLNWYQQKPGKAPKLLIYDASNLETGVPSRFSGSGSGTDFTFTISSLQPEDIATYYCLHYENLPLSFGGGTKVEIK

Legend:
[1] = molecular target: SARS-CoV-2 WA-1 S-2P spike protein (SARS-CoV-2), P0DTC2; conditions: remark: other sources report otherwise
[2] = molecular target: T1, SARS-CoV-2 Omicron BA.1 spike protein (on pseudotyped lentivirus) (SARS-CoV-2), P0DTC2; assay: cell-based or functional assay
[3] = molecular target: T1, SARS-CoV-2 Omicron BA.1 spike protein …

Row | Binder | % inhibition of ACE2 binding [1] [%] | neutralization IC50 [2] [µg/mL] | neutralization IC50 [3] [µg/mL] | neutralization IC80 [3] [µg/mL]
1 | B1 | 98 |  |  | 
2 | B2 |  | < 0.1 | 0.01 | 0.02
